In US20260364214A1, “MULTIVALENT FIBROBLAST ACTIVATION PROTEIN LIGANDS FOR TARGETED DELIVERY APPLICATIONS” (Philochem AG, priority 2022, published 2026):

Legend:
[1] = Tolerability (body weight change) of MMAE conjugates in HT-1080.hFAP tumor bearing mice; type: in vivo, mouse (athymic Balb/c AnNRj-Foxn1); settings: 50 or 125 nmol/kg
Method: The anti-cancer efficacy of (i) ESV6-GlyPro-MMAE (50 or 125 nmol/kg) —corresponding to Conjugate 58a of EP3891138B1—, and (ii) Tri-ESV6-GlyPro-MMAE (50 or 125 nmol/kg) according to the present invention was assessed in athymic Balb/c AnNRj-Foxn1 mice bearing HT-1080.hFAP tumor in the right flank. Therapy experiments started when the average volume of established tumors had reached 80-100 mm3. Body weight of the animals and tumor volume were daily measured and recorded. Tumor dimensions were measured with an electronic caliper and tumor volume was calculated with the formula (long side, mm)×(short side, mm)×(short side, mm)×0.5. Animals were euthanized when one or more termination criterium indicated by the experimental license was reached. Prism 7 software (GraphPad Software) was used for data analysis.

HT-1080.hFAP tumors = assay: Quantitative in vivo MMAE release in tumor and healthy organs; design: species or system mouse (athymic Balb/c AnNRj-Foxn1); settings: 250 nmol/kg; vs ESV6-GlyPro-MMAE and Bi-ESV6-GlyPro-MMAE
From the text: The ESV6 binding moiety in monomeric, dimeric or trimeric form was conjugated to an identical linker-payload structure based on a Glycine-Proline linker and an MMAE cytotoxic moiety. The three conjugates: (i) ESV6-GlyPro-MMAE—corresponding to Conjugate 58a of EP3891138B1—, (ii) Bi-ESV6-GlyPro-MMAE—corresponding to Conjugate 11 of WO2022/171811A1, and (iii) Tri-ESV6-GlyPro-MMAE—corresponding to Conjugate 9 of the present invention—, were compared in a tumor mouse model to study the efficacy of release of the MMAE cytotoxic moiety into the tumor.
HT-1080.hFAP tumors were implanted into the right flank of athymic Balb/c AnNRj-Foxn1 mice and allowed to grow to an average volume of approximately 200 mm^3. Mice were injected with the three conjugates at a dose of 250 nmol/kg and sacrificed at different timepoints after administration. Fresh blood was collected in lithium heparin tubes (BD Microcontainer LH Tubes), vortexed, and centrifuged (15,000 g, 15 minutes). […] Peak areas of analytes and internal standards were integrated, and corresponding ratios were calculated. The ratios were then transformed into pmol/g of wet tissue using single-concentration external calibration points and corrected by the total weight of the sample analysed. The percentage of injected dose per gram (% ID/g) was finally calculated by normalizing the value based on the total dose injected into the mouse. […]

## CC[C@@H](C)[C@@H]([C@@H](CC(=O)N1CCC[C@H]1[C@H](OC)[C@@H](C)C(=O)N[C@H](C)[C@@H](O)c1ccccc1)OC)N(C)C(=O)[C@@H](NC(=O)[C@H](C(C)C)N(C)C(=O)OCc1ccc(NC(=O)[C@@H]2CCCN2C(=O)CNC(=O)CCCCCN2C(=O)CC(SC[C@H](NC(=O)[C@H](CC(=O)O)NC(=O)[C@H](CCCCN)NC(=O)[C@H](CC(=O)O)NC(=O)CCC(=O)NC(COCCC(=O)NCCNC(=O)CCC(=O)Nc3cccc4c(C(=O)NCC(=O)N5CC(F)(F)C[C@H]5C#N)ccnc34)(COCCC(=O)NCCNC(=O)CCC(=O)Nc3cccc4c(C(=O)NCC(=O)N5CC(F)(F)C[C@H]5C#N)ccnc34)COCCC(=O)NCCNC(=O)CCC(=O)Nc3cccc4c(C(=O)NCC(=O)N5CC(F)(F)C[C@H]5C#N)ccnc34)C(=O)O)C2=O)cc1)C(C)C (stereo in doubt) [Tri-ESV6-GlyPro-MMAE]
[1]
  tolerability (body weight change), in words: well tolerated
HT-1080.hFAP tumors
  MMAE release in tumor and healthy organs, in words: cleaner biodistribution profile, with high and prolonged accumulation at the tumor site, and lower release in the healthy organs
